Test results taken from patent publication US20140147490A1, “HLA CLASS I A2 TUMOR ASSOCIATED ANTIGEN PEPTIDES AND VACCINE COMPOSITIONS” (priority 2012, published 2014).

What was measured:
[1] = test system: patients with recurrent or residual cervical carcinoma; details: cited from earlier work
HLA-A*6802 [2] = target: T1, HLA-A*6802 (human, UniProt P30375 25-308 (Gorilla gorilla entry), limits assumed); test: competitive binding assay, purified HLA
T1 construct: purified HLA molecule; b2m and chain limits not described
T1 MHC heavy: not shown

HLA-A*6802 [3] = target: T1, HLA-A*6802; test: competitive inhibition assay, purified HLA

**Q.** For aKXVAAWTLKAAa-NH2 [PADRE], which responding patients ([1]; 95% interval 10-65%) is on record?
**A.** The responding patients was 33%.

**Q.** And the safety ([1]; immunocompromised cervical carcinoma patients)?
**A.** Its safety is “favorable safety profile”.

**Q.** For VVLGVVFGI (native HER2/neu peptide) [Her2/neu.665], which IC50 (HLA-A*6802 [2]) is on record?
**A.** Its IC50 is 2000 nM.

**Q.** And the IC50 (HLA-A*6802 [3])?
**A.** The IC50 was 2000 nM.

**Q.** Which IC50 (HLA-A*6802 [3]) does the source give for HLYQGCQVV (native HER2/neu peptide) [Her2/neu.48] here?
**A.** Its IC50 is 1140 nM.
